Assay results: patent US20210388087A1 (Chugai, published 2021)

Target: T1, CD3 epsilon homodimer protein (UniProt P07766 23-126)
T1 construct: immobilized on Sensor chip CM4 by amine coupling; also called CD3 (CD3 epsilon)
Assay: SPR (Biacore T200), CD3 epsilon homodimer on CM4 chip, one-arm antibody as analyte, 25 C;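 further: homodimer attached to the sensor surface via amine coupling, HBS-EP+ used as running buffer during binding runs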

T1 sequence (P07766 23-126): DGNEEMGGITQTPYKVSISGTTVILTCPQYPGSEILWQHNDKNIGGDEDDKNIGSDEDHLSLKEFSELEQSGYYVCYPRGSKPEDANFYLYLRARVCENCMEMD

| ratio of amounts bound (altered form / CE115HA000) | Binder |
| --- | --- |
| 0.94 | CE115HA000 A60E one-arm antibody (antibody, human IgG1, kappa, L234A L235A, N297A, name in Kabat numbering) heavy: QVQLVESGGGVVQPGRSLRLSCAASGFTFSNAWMHWVRQAPGKGLEWVAQIKAKSNNYATYYEESVKGRFTISRDDSKNSLYLQMNSLKTEDTAVYYCRYVHYGAYYGVDAWGQGTTVTVSSASTKGPSVFPLAPSSKSTSGGTAALGCLVKDYFPEPVTVSWNSGALTSGVHTFPAVLQSSGLYSLSSVVTVPSSSLGTQTYICNVNHKPSNTKVDKKVEPKSCDKTHTCPPCPAPEAAGGPSVFLFPPKPKDTLMISRTPEVTCVVVDVSHEDPEVKFNWYVDGVEVHNAKTKPREEQYASTYRVVSVLTVLHQDWLNGKEYKCKVSNKALPAPIEKTISKAKGQPREPQVYTLPPSRCELTKNQVSLSCAVKGFYPSDIAVEWESNGQPENNYKTTPPVLDSDGSFFLVSKLTVDKSRWQQGNVFSCSVMHEALHNHYTQKSLSLSPDYKDDDDK EPKSSDKTHTCPPCPAPELLGGPSVFLFPPKPKDTLMISRTPEVTCVVVDVSHEDPEVKFNWYVDGVEVHNAKTKPREEQYNSTYRVVSVLTVLHQDWLNGKEYKCKVSNKALPAPIEKTISKAKGQPREPQVCTLPPSRDELTKNQVSLWCLVKGFYPSDIAVEWESNGQPENNYKTTPPVLDSDGSFFLYSKLTVDKSRWQQGNVFSCSVMHEALHNRYTQKSLSLSP light: DIVMTQSPLSLPVTPGEPASISCRSSQSLVHSNRNTYLHWYQQKPGQAPRLLIYKVSNRFSGVPDRFSGSGSGTDFTLKISRVEAEDVGVYYCGQGTQVPYTFGQGTKLEIKRTVAAPSVFIFPPSDEQLKSGTASVVCLLNNFYPREAKVQWKVDNALQSGNSQESVTEQDSKDSTYSLSSTLTLSKADYEKHKVYACEVTHQGLSSPVTKSFNRGEC |
| 0.99 | CE115HA000 A60D one-arm antibody (antibody, human IgG1, kappa, L234A L235A, N297A, name in Kabat numbering) heavy: QVQLVESGGGVVQPGRSLRLSCAASGFTFSNAWMHWVRQAPGKGLEWVAQIKAKSNNYATYYDESVKGRFTISRDDSKNSLYLQMNSLKTEDTAVYYCRYVHYGAYYGVDAWGQGTTVTVSSASTKGPSVFPLAPSSKSTSGGTAALGCLVKDYFPEPVTVSWNSGALTSGVHTFPAVLQSSGLYSLSSVVTVPSSSLGTQTYICNVNHKPSNTKVDKKVEPKSCDKTHTCPPCPAPEAAGGPSVFLFPPKPKDTLMISRTPEVTCVVVDVSHEDPEVKFNWYVDGVEVHNAKTKPREEQYASTYRVVSVLTVLHQDWLNGKEYKCKVSNKALPAPIEKTISKAKGQPREPQVYTLPPSRCELTKNQVSLSCAVKGFYPSDIAVEWESNGQPENNYKTTPPVLDSDGSFFLVSKLTVDKSRWQQGNVFSCSVMHEALHNHYTQKSLSLSPDYKDDDDK EPKSSDKTHTCPPCPAPELLGGPSVFLFPPKPKDTLMISRTPEVTCVVVDVSHEDPEVKFNWYVDGVEVHNAKTKPREEQYNSTYRVVSVLTVLHQDWLNGKEYKCKVSNKALPAPIEKTISKAKGQPREPQVCTLPPSRDELTKNQVSLWCLVKGFYPSDIAVEWESNGQPENNYKTTPPVLDSDGSFFLYSKLTVDKSRWQQGNVFSCSVMHEALHNRYTQKSLSLSP light: DIVMTQSPLSLPVTPGEPASISCRSSQSLVHSNRNTYLHWYQQKPGQAPRLLIYKVSNRFSGVPDRFSGSGSGTDFTLKISRVEAEDVGVYYCGQGTQVPYTFGQGTKLEIKRTVAAPSVFIFPPSDEQLKSGTASVVCLLNNFYPREAKVQWKVDNALQSGNSQESVTEQDSKDSTYSLSSTLTLSKADYEKHKVYACEVTHQGLSSPVTKSFNRGEC |

The next lines start with the binder.

| Binder | ratio of amounts bound (altered form / CE115HA000) |
| --- | --- |
| CE115HA000 A56L one-arm antibody (antibody, human IgG1, kappa, L234A L235A, N297A, name in Kabat numbering) heavy: QVQLVESGGGVVQPGRSLRLSCAASGFTFSNAWMHWVRQAPGKGLEWVAQIKAKSNNYLTYYAESVKGRFTISRDDSKNSLYLQMNSLKTEDTAVYYCRYVHYGAYYGVDAWGQGTTVTVSSASTKGPSVFPLAPSSKSTSGGTAALGCLVKDYFPEPVTVSWNSGALTSGVHTFPAVLQSSGLYSLSSVVTVPSSSLGTQTYICNVNHKPSNTKVDKKVEPKSCDKTHTCPPCPAPEAAGGPSVFLFPPKPKDTLMISRTPEVTCVVVDVSHEDPEVKFNWYVDGVEVHNAKTKPREEQYASTYRVVSVLTVLHQDWLNGKEYKCKVSNKALPAPIEKTISKAKGQPREPQVYTLPPSRCELTKNQVSLSCAVKGFYPSDIAVEWESNGQPENNYKTTPPVLDSDGSFFLVSKLTVDKSRWQQGNVFSCSVMHEALHNHYTQKSLSLSPDYKDDDDK EPKSSDKTHTCPPCPAPELLGGPSVFLFPPKPKDTLMISRTPEVTCVVVDVSHEDPEVKFNWYVDGVEVHNAKTKPREEQYNSTYRVVSVLTVLHQDWLNGKEYKCKVSNKALPAPIEKTISKAKGQPREPQVCTLPPSRDELTKNQVSLWCLVKGFYPSDIAVEWESNGQPENNYKTTPPVLDSDGSFFLYSKLTVDKSRWQQGNVFSCSVMHEALHNRYTQKSLSLSP light: DIVMTQSPLSLPVTPGEPASISCRSSQSLVHSNRNTYLHWYQQKPGQAPRLLIYKVSNRFSGVPDRFSGSGSGTDFTLKISRVEAEDVGVYYCGQGTQVPYTFGQGTKLEIKRTVAAPSVFIFPPSDEQLKSGTASVVCLLNNFYPREAKVQWKVDNALQSGNSQESVTEQDSKDSTYSLSSTLTLSKADYEKHKVYACEVTHQGLSSPVTKSFNRGEC | 0.8 |
| CE115HA000 A56Q one-arm antibody (antibody, human IgG1, kappa, L234A L235A, N297A, name in Kabat numbering) heavy: QVQLVESGGGVVQPGRSLRLSCAASGFTFSNAWMHWVRQAPGKGLEWVAQIKAKSNNYQTYYAESVKGRFTISRDDSKNSLYLQMNSLKTEDTAVYYCRYVHYGAYYGVDAWGQGTTVTVSSASTKGPSVFPLAPSSKSTSGGTAALGCLVKDYFPEPVTVSWNSGALTSGVHTFPAVLQSSGLYSLSSVVTVPSSSLGTQTYICNVNHKPSNTKVDKKVEPKSCDKTHTCPPCPAPEAAGGPSVFLFPPKPKDTLMISRTPEVTCVVVDVSHEDPEVKFNWYVDGVEVHNAKTKPREEQYASTYRVVSVLTVLHQDWLNGKEYKCKVSNKALPAPIEKTISKAKGQPREPQVYTLPPSRCELTKNQVSLSCAVKGFYPSDIAVEWESNGQPENNYKTTPPVLDSDGSFFLVSKLTVDKSRWQQGNVFSCSVMHEALHNHYTQKSLSLSPDYKDDDDK EPKSSDKTHTCPPCPAPELLGGPSVFLFPPKPKDTLMISRTPEVTCVVVDVSHEDPEVKFNWYVDGVEVHNAKTKPREEQYNSTYRVVSVLTVLHQDWLNGKEYKCKVSNKALPAPIEKTISKAKGQPREPQVCTLPPSRDELTKNQVSLWCLVKGFYPSDIAVEWESNGQPENNYKTTPPVLDSDGSFFLYSKLTVDKSRWQQGNVFSCSVMHEALHNRYTQKSLSLSP light: DIVMTQSPLSLPVTPGEPASISCRSSQSLVHSNRNTYLHWYQQKPGQAPRLLIYKVSNRFSGVPDRFSGSGSGTDFTLKISRVEAEDVGVYYCGQGTQVPYTFGQGTKLEIKRTVAAPSVFIFPPSDEQLKSGTASVVCLLNNFYPREAKVQWKVDNALQSGNSQESVTEQDSKDSTYSLSSTLTLSKADYEKHKVYACEVTHQGLSSPVTKSFNRGEC | 0.76 |
| CE115HA000 A56N one-arm antibody (antibody, human IgG1, kappa, L234A L235A, N297A, name in Kabat numbering) heavy: QVQLVESGGGVVQPGRSLRLSCAASGFTFSNAWMHWVRQAPGKGLEWVAQIKAKSNNYNTYYAESVKGRFTISRDDSKNSLYLQMNSLKTEDTAVYYCRYVHYGAYYGVDAWGQGTTVTVSSASTKGPSVFPLAPSSKSTSGGTAALGCLVKDYFPEPVTVSWNSGALTSGVHTFPAVLQSSGLYSLSSVVTVPSSSLGTQTYICNVNHKPSNTKVDKKVEPKSCDKTHTCPPCPAPEAAGGPSVFLFPPKPKDTLMISRTPEVTCVVVDVSHEDPEVKFNWYVDGVEVHNAKTKPREEQYASTYRVVSVLTVLHQDWLNGKEYKCKVSNKALPAPIEKTISKAKGQPREPQVYTLPPSRCELTKNQVSLSCAVKGFYPSDIAVEWESNGQPENNYKTTPPVLDSDGSFFLVSKLTVDKSRWQQGNVFSCSVMHEALHNHYTQKSLSLSPDYKDDDDK EPKSSDKTHTCPPCPAPELLGGPSVFLFPPKPKDTLMISRTPEVTCVVVDVSHEDPEVKFNWYVDGVEVHNAKTKPREEQYNSTYRVVSVLTVLHQDWLNGKEYKCKVSNKALPAPIEKTISKAKGQPREPQVCTLPPSRDELTKNQVSLWCLVKGFYPSDIAVEWESNGQPENNYKTTPPVLDSDGSFFLYSKLTVDKSRWQQGNVFSCSVMHEALHNRYTQKSLSLSP light: DIVMTQSPLSLPVTPGEPASISCRSSQSLVHSNRNTYLHWYQQKPGQAPRLLIYKVSNRFSGVPDRFSGSGSGTDFTLKISRVEAEDVGVYYCGQGTQVPYTFGQGTKLEIKRTVAAPSVFIFPPSDEQLKSGTASVVCLLNNFYPREAKVQWKVDNALQSGNSQESVTEQDSKDSTYSLSSTLTLSKADYEKHKVYACEVTHQGLSSPVTKSFNRGEC | 0.87 |
| CE115HA000 A56Y one-arm antibody (antibody, human IgG1, kappa, L234A L235A, N297A, name in Kabat numbering) heavy: QVQLVESGGGVVQPGRSLRLSCAASGFTFSNAWMHWVRQAPGKGLEWVAQIKAKSNNYYTYYAESVKGRFTISRDDSKNSLYLQMNSLKTEDTAVYYCRYVHYGAYYGVDAWGQGTTVTVSSASTKGPSVFPLAPSSKSTSGGTAALGCLVKDYFPEPVTVSWNSGALTSGVHTFPAVLQSSGLYSLSSVVTVPSSSLGTQTYICNVNHKPSNTKVDKKVEPKSCDKTHTCPPCPAPEAAGGPSVFLFPPKPKDTLMISRTPEVTCVVVDVSHEDPEVKFNWYVDGVEVHNAKTKPREEQYASTYRVVSVLTVLHQDWLNGKEYKCKVSNKALPAPIEKTISKAKGQPREPQVYTLPPSRCELTKNQVSLSCAVKGFYPSDIAVEWESNGQPENNYKTTPPVLDSDGSFFLVSKLTVDKSRWQQGNVFSCSVMHEALHNHYTQKSLSLSPDYKDDDDK EPKSSDKTHTCPPCPAPELLGGPSVFLFPPKPKDTLMISRTPEVTCVVVDVSHEDPEVKFNWYVDGVEVHNAKTKPREEQYNSTYRVVSVLTVLHQDWLNGKEYKCKVSNKALPAPIEKTISKAKGQPREPQVCTLPPSRDELTKNQVSLWCLVKGFYPSDIAVEWESNGQPENNYKTTPPVLDSDGSFFLYSKLTVDKSRWQQGNVFSCSVMHEALHNRYTQKSLSLSP light: DIVMTQSPLSLPVTPGEPASISCRSSQSLVHSNRNTYLHWYQQKPGQAPRLLIYKVSNRFSGVPDRFSGSGSGTDFTLKISRVEAEDVGVYYCGQGTQVPYTFGQGTKLEIKRTVAAPSVFIFPPSDEQLKSGTASVVCLLNNFYPREAKVQWKVDNALQSGNSQESVTEQDSKDSTYSLSSTLTLSKADYEKHKVYACEVTHQGLSSPVTKSFNRGEC | 0.66 |
